{
  "source": "paper PMC11969719",
  "about": "“Rapid synthesis of glycosylated insulins by flow-based peptide synthesis” (Chemical Science, 2025)",
  "origin": "cited, not measured here",
  "conditions": "ref [5c,18]",
  "description": "To address this issue, we incorporated an isoacyl dipeptide unit at the Thr^A8-Ser^A9 position (superscripts indicate positions in the A-chain), following a previous report,[8b] as the isoacyl dipeptide improves both peptide solubility and synthetic efficiency.[19]",
  "data": [
    {"substance": "A-chain: insulin A-chain, 21-amino acid chain of human insulin", "values": [
      {"measurement": "solubility (in words)", "result": "poor solubility"}
    ]}
  ]
}
